In the supplement of paper PMC9170038:

Legend:
MS2 coat protein [1] = assay: apparent KD of MS2 coat protein, switch OFF state (with FMN for OFF switches, without FMN for ON switches); designed switch direction (-1 OFF switch, 1 ON switch): -1; higher = weaker reporter binding; settings: FMN input: 0 or 200 uM; Eterna round: R93 (includes R88 designs)
Procedure, shortened: (§1)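 Illumina sequencing clusters served as templates for on-chip transcription of the designed RNA switches. SNAP-549-labelled MS2 coat protein was then titrated in twofold steps from 0.7 or 1.5 nM to 3 µM, allowing 0.8–1.5 h per step at first and 10–20 min per step later. The buffer held 100 mM Tris-HCl pH 7.5, 80 mM KCl and 4 mM MgCl2, without or with constant ligand. Apparent KD is the median per design of normalised cluster binding-curve fits.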

MS2 coat protein [2] = assay: apparent KD of MS2 coat protein, switch ON state; designed switch direction (-1 OFF switch, 1 ON switch): -1; higher = weaker reporter binding; settings: FMN input: 0 or 200 uM; Eterna round: R93 (includes R88 designs)
Procedure, shortened: as §1

MS2 coat protein [3] = assay: apparent KD of MS2 coat protein; designed switch direction (-1 OFF switch, 1 ON switch): 1; higher = weaker reporter binding
Procedure, shortened: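 Stalled E. coli RNA polymerase transcribed designed RNA switches on Illumina chips, which were then titrated with SNAP-549-labelled MS2 coat protein, doubling from 0.7 or 1.5 nM to 3 µM. Steps lasted from 0.8–1.5 h at the lowest concentration to 10–20 min at the highest. The apparent KD is each design's median over clusters of curve-fitted normalised fluorescence.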

[4] = input ligand: microRNA oligo, concentration not stated
[5] = Eterna round: R95, input ligand: microRNA oligo, concentration not stated
[6] = Eterna round: R95, input ligand: FMN 200 uM
[7] = Eterna round: R95, input ligand: none

Sequence: AACAAGACAGGAUAUACAUGAGGAUCACCCAUGUGAGAAUUAAGUGGCGUACCACAAGGUAGAAGGGUCAUGGA [Ruby 3]
- apparent KD of MS2 coat protein (MS2 coat protein [1]): 57.6 nM
- apparent KD of MS2 coat protein (MS2 coat protein [2]): 34.2 nM

Sequence: AAAAAGGCAGGAUAUGCAUACCCACGGAAAAAAAGGUUGGGACAUGAGGAUCACCCAUGUAGAAGGGCCAAAAA [Dora Explored 13 - Jieux - Exclusion 2]
- apparent KD of MS2 coat protein (MS2 coat protein [1]): 22.4 nM
- apparent KD of MS2 coat protein (MS2 coat protein [2]): 43.4 nM

Sequence: ACAAGAUCAGGAUAUACAUGAGGAUCACCCAUGUAUAUCAAAAAGGGACUUACUUAAUGUAGAAGGGAUCAUGU [EX3 280: Random 16]
- apparent KD of MS2 coat protein (MS2 coat protein [1]): 13.9 nM
- apparent KD of MS2 coat protein (MS2 coat protein [2]): 12.7 nM

Sequence: AAGAAACAUGAGGAUCACCCAUGUGAGGAUAUCGAAAAGAAAAGAAAAGAAAGAAGAACGAGAAGGCACAAAGG [Neferkare (V) Tereru]
- apparent KD of MS2 coat protein (MS2 coat protein [1]): 76.2 nM
- apparent KD of MS2 coat protein (MS2 coat protein [2]): 52.7 nM

Sequence: AAGAAGUCAGGAUAUCGAAGACUGUCGAAAAGACAGUCGAACGAGAAGGGACAUGAGGAUCACCCAUGUGGAAA [Marsurpial 65% 7]
- apparent KD of MS2 coat protein (MS2 coat protein [1]): 112 nM
- apparent KD of MS2 coat protein (MS2 coat protein [2]): 56.3 nM

Sequence: GUAGUGUGAGGAUAUGAUUAAAAGAAGGGAAAGAGACUGCAUCAGAAGGCACAUGAGGAUCACCCAUGUAUGAA [JR_Exc004_Sub1223]
- apparent KD of MS2 coat protein (MS2 coat protein [1]): 45.7 nM
- apparent KD of MS2 coat protein (MS2 coat protein [2]): 34.3 nM

Sequence: AAAAGACAUGAGGAUCACCCAUGUCAGGAUAUGACUUGAAAAAAAAAAAAAAAACAUGUCAGAAGGGACAUGAA [Design 45: Sub-opt D]
- apparent KD of MS2 coat protein (MS2 coat protein [1]): 19.6 nM
- apparent KD of MS2 coat protein (MS2 coat protein [2]): 20.6 nM

Sequence: GGAGCCGGCCUAGGAUAUUUCAUAACAAAACAUGAGGAUCACCCAUGUAGGCCAGAAGGCCUUGGGAAGAAGGAGGUCGGCUCC [Loop Effect - C26] (Eterna round: R96, puzzle: Same State NG 2)
- apparent KD of MS2 coat protein (MS2 coat protein [3]; [4]): 18.9 nM

Sequence: AGUAUACAUGAGGAUCACCCAUGUCUGUAACGGACAGGAUAUGCGUUGCAUCACUGUAAUGCAGAAGGGUCCUGUA [Same State 1 - Mod of JMF's solution 1 v.2] (puzzle: Same State 1)
- apparent KD of MS2 coat protein (MS2 coat protein [3]; [5]): 179 nM

Sequence: AAGUUACUAUCUCAGGAUAUCAUGUCAAAGACAUGAGGAUCACCCAUGUACCAGGAAACUGGUUAUGAGAAGGGAGAUAGUAACU [Mat - Same State 2 - Mod - D54] (puzzle: Same State 2)
- apparent KD of MS2 coat protein (MS2 coat protein [3]; [6]): 156 nM
- apparent KD of MS2 coat protein (MS2 coat protein [3]; [5]): 204 nM
- apparent KD of MS2 coat protein (MS2 coat protein [3]; [7]): 819 nM

Sequence: AAAAGACAUGAGGAUCACCCAUGUAUGAAAAGUACAGGAUAUCACGAGCUAAAGUGCGAGUGAGAAGGGUGAAAAU [Araceesge] (puzzle: Same State 1)
- apparent KD of MS2 coat protein (MS2 coat protein [3]; [6]): 60.9 nM
- apparent KD of MS2 coat protein (MS2 coat protein [3]; [5]): 41.9 nM
- apparent KD of MS2 coat protein (MS2 coat protein [3]; [7]): 37.1 nM

Sequence: GGAGCCGGUACUGAGGAUAUUCAUAUUAAAACAUGAGGAUCACCCAUGUAGGCCAGAAGGCCUUGGGAGAAGGCAGGCCAGCUCG [Atgexeedri - 4] (puzzle: Same State 2)
- apparent KD of MS2 coat protein (MS2 coat protein [3]; [6]): 20.2 nM
- apparent KD of MS2 coat protein (MS2 coat protein [3]; [5]): 270 nM
- apparent KD of MS2 coat protein (MS2 coat protein [3]; [7]): 458 nM

Sequence: GGAGCCGGCCUAGGAUAUUUCAUAAAUUAACAUGAGGAUCACCCAUGUAGGCCAGAAGGCCUUGGGAAGAAGGAGGUCGGCUCC [Loop Effect - U27,U28] (Eterna round: R96, puzzle: Same State NG 2)
- apparent KD of MS2 coat protein (MS2 coat protein [3]; input ligand: FMN 200 uM): 16.8 nM
- apparent KD of MS2 coat protein (MS2 coat protein [3]; [4]): 37.7 nM
- apparent KD of MS2 coat protein (MS2 coat protein [3]; input ligand: none): 51.4 nM

Sequence: GCUAGAAUUAAUGCCUACAUGAGGAUCACCCAUGUAUGUAGGCAGGAUAUCGUUUGCUUUGCAAACGAGAAGGGCCUUACUAGC [JL SSNG3 1.10] (Eterna round: R96, puzzle: Same State NG 3)
- apparent KD of MS2 coat protein (MS2 coat protein [3]; input ligand: FMN 200 uM): 18.9 nM
- apparent KD of MS2 coat protein (MS2 coat protein [3]; [4]): 50.8 nM
- apparent KD of MS2 coat protein (MS2 coat protein [3]; input ligand: none): 77.3 nM

Sequence: UGAAUGGUGAUAGGAUAUACAUGAGGAAUCCUCGUAGAAGGAUCACGACAUGAGGAUCACCCAUGUAGCCGUCCGUAGACGGCG [salish99_SSNG1_r04_001] (Eterna round: R96, puzzle: Same State NG 1)
- apparent KD of MS2 coat protein (MS2 coat protein [3]; input ligand: FMN 200 uM): 302 nM
- apparent KD of MS2 coat protein (MS2 coat protein [3]; [4]): 38.9 nM
- apparent KD of MS2 coat protein (MS2 coat protein [3]; input ligand: none): 238 nM

Sequence: ACAUGAGACUUAGGAUAUCUUGUACCUACAUGUGACAUGAGGAUCACCCAUGUGGUAAGUAUGAGAGAGAAGGAAGAGAUAUGU [Equivalence 37 - Jieux - Same State NG 2] (Eterna round: R96, puzzle: Same State NG 2)
- apparent KD of MS2 coat protein (MS2 coat protein [3]; input ligand: FMN 200 uM): 19.7 nM
- apparent KD of MS2 coat protein (MS2 coat protein [3]; [4]): 14.4 nM
- apparent KD of MS2 coat protein (MS2 coat protein [3]; input ligand: none): 23.2 nM

Sequence: GCGAAACAUGAGGAUCACCCAUGUAUGGCGGGCACAGGAUAUCGUGGUUCGCUCAUACUACGAGAAGGGUGAAAAG [Orqu] (puzzle: Same State 1)
- apparent KD of MS2 coat protein (MS2 coat protein [3]; [6]): 24.1 nM
- apparent KD of MS2 coat protein (MS2 coat protein [3]; [5]): 18.4 nM
- apparent KD of MS2 coat protein (MS2 coat protein [3]; [7]): 16.9 nM

Sequence: AGCCGAGACUGAGGAUAUUUAAAUCUACAUGAGGAUCACCCAUGUAACAACACGUGGUAGUGAUUGAAGAAGGCGGCUCGGCGC [Omei SS(NG)2 Cv2] (Eterna round: R96, puzzle: Same State NG 2)
- apparent KD of MS2 coat protein (MS2 coat protein [3]; input ligand: FMN 200 uM): 177 nM
- apparent KD of MS2 coat protein (MS2 coat protein [3]; [4]): 406 nM
- apparent KD of MS2 coat protein (MS2 coat protein [3]; input ligand: none): 404 nM

Sequence: CGGGUACAUGAGGAUCACCCAUGUGGAAGAGAUGCAGGAUAUGUGGGAAAAGGGAAUGUAACAGAAGGGCAAGGAG [JR_SS!_Sub016] (puzzle: Same State 1)
- apparent KD of MS2 coat protein (MS2 coat protein [3]; [6]): 53.4 nM
- apparent KD of MS2 coat protein (MS2 coat protein [3]; [5]): 64.1 nM
- apparent KD of MS2 coat protein (MS2 coat protein [3]; [7]): 144 nM

Sequence: UGGCUCAGACGAGGAUAUAUGUGAUCACAUGAGGAUCACCCAUGUCUCGAGCUUCGGCUCGAGACAUAGAAGGUGUCUGAGCCA [SSNG2/3-C2] (Eterna round: R96, puzzle: Same State NG 2)
- apparent KD of MS2 coat protein (MS2 coat protein [3]; input ligand: FMN 200 uM): 14.8 nM
- apparent KD of MS2 coat protein (MS2 coat protein [3]; [4]): 96.2 nM
- apparent KD of MS2 coat protein (MS2 coat protein [3]; input ligand: none): 49.5 nM

Sequence: AGCUAUCGAAAACGAUAGCAAAAGCAUGUACAUGAGGAUCACCCAUGUCAUGUACAGGCUUUUUGCUCGUCUUAAAA [Zipper 23 - 8] (puzzle: Sensor for hsa-mir-208a)
- apparent KD of MS2 coat protein (MS2 coat protein [3]; [6]): 26.4 nM
- apparent KD of MS2 coat protein (MS2 coat protein [3]; [5]): 18.3 nM
- apparent KD of MS2 coat protein (MS2 coat protein [3]; [7]): 124 nM

Sequence: AGAUAGUGUGGAAAGGAUAUACGGUUGAGGACAUGAGGAUCACCCAUGUAGUAGAGGAAGGAAGGGUAGAAGGUUCAGGAUUGAU [JR_SS2_Sub018] (puzzle: Same State 2)
- apparent KD of MS2 coat protein (MS2 coat protein [3]; [6]): 70.2 nM
- apparent KD of MS2 coat protein (MS2 coat protein [3]; [5]): 43.1 nM
- apparent KD of MS2 coat protein (MS2 coat protein [3]; [7]): 50.4 nM

Sequence: ACAUGAAAUUUAGGAUAUUUUGUACCUACAUGUGACAUGAGGAUCACCCAUGUGGUAAGUAUGAGAAAGAAGGAAAAGAUAUGU [Equivalence 9 - Jieux - Same State NG 2] (Eterna round: R96, puzzle: Same State NG 2)
- apparent KD of MS2 coat protein (MS2 coat protein [3]; input ligand: FMN 200 uM): 71.8 nM
- apparent KD of MS2 coat protein (MS2 coat protein [3]; [4]): 61.6 nM
- apparent KD of MS2 coat protein (MS2 coat protein [3]; input ligand: none): 70.9 nM

Sequence: CUAAAACAUGAGGAUCACCCAUGUCAACAAAGUCGAGGAUAUGGGCAAAUAAAAUAAGAACCAGAAGGCGAAUAAA [salish99_SS1_r3_015] (puzzle: Same State 1)
- apparent KD of MS2 coat protein (MS2 coat protein [3]; [6]): 42.8 nM
- apparent KD of MS2 coat protein (MS2 coat protein [3]; [5]): 518 nM
- apparent KD of MS2 coat protein (MS2 coat protein [3]; [7]): 518 nM

Sequence: GUUACAUGAGGAUCACCCAUGUAUGUGUGGGAGUAAGUGUCUUAGGAUAUCUAUCAUUUAAAUUAAGAGAAGGAAGAUUGUUGU [JMF's solution 12] (Eterna round: R96, puzzle: Same State NG 3)
- apparent KD of MS2 coat protein (MS2 coat protein [3]; input ligand: FMN 200 uM): 126 nM
- apparent KD of MS2 coat protein (MS2 coat protein [3]; [4]): 73.5 nM
- apparent KD of MS2 coat protein (MS2 coat protein [3]; input ligand: none): 118 nM

Sequence: AGUCCAGCCUGAGCUGGACAAAAGCAUGUACAUGAGGAUCACCCAUGUCAUGUACAAGCUUUUUGCUCGUCUUAUAA [Mat - hsa-mir-208a - Mod of JL - D25] (puzzle: Sensor for hsa-mir-208a)
- apparent KD of MS2 coat protein (MS2 coat protein [3]; [6]): 643 nM
- apparent KD of MS2 coat protein (MS2 coat protein [3]; [5]): 14.9 nM
- apparent KD of MS2 coat protein (MS2 coat protein [3]; [7]): 704 nM
